Reference: the nanobody polyreactivity screen of Harvey et al. (2022)

Experiment: yeast display, Sf9 membrane polyspecificity reagent, FACS + sequencing; frameworks hold sequencing errors
Summary of the method: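 Galactose-induced (36–48 hours) yeast carrying a synthetic nanobody display library were exposed to 10% biotinylated, detergent-solubilized Sf9 membrane reagent at 4 °C for 1 hour. FACS followed streptavidin microbead enrichment, using low and high (top ~1%) gates for expression (anti-HA) and reagent binding (streptavidin). Colony PCR, MiSeq 2 × 250 sequencing and CDR-length filtering followed. Labels for polyreactivity reflect the gate of origin.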
For “QVQLVESGGGLVQAGGSLSLSCAASGRTFQSYAMGWYRQAPGKERELVATITSRGGSTYYADSVKGRFTISRDNAKYTVYLQMNSLKPEVTAVYYCAKRFKSYLGYDYWGQGTQVTVSS”, the “polyreactivity (PSR sort gate)” value was “low polyreactivity”. In the case of “QVQLVESGGGLVQAGGSLSLSCAASGRTFTPNVMGWYRQAPGKERELVAGISSTGGSTYYADSVKGRFTISRDNAKNTVYLHMNSLKPEDTAVYYCAKEYYDGYFPTFDYDYWGQGTQVTVSS”, the “polyreactivity (PSR sort gate)” value is reported as “low polyreactivity”. In the case of “QVQLVESGGGLVQAGGSLSLSCAASGRTFVYYAMGWYRQAPGKERELVAAISSSGGRTYYADSVKGRFTISRDNAKNTVYLQMNSLKPEDTAVYYCAARRLSPIYDSWGQGTQVTVSS”, the “polyreactivity (PSR sort gate)” value is reported as “high polyreactivity”. With “QVQLVESGGGLVQAGGSLSLSCAASGRTLYSNAMGWYRPAPGKERELVAAISRRGSSTYYADSVKGRFTISRDNAKNSVFLQMNSLKPEDTAVYYCARYKYTRQTRVEYGYWGQGTQVTVSS” the “polyreactivity (PSR sort gate)” value was “high polyreactivity”. For “QVQLVESGGGLVQAGGSLSLSCAASGRTLYVYTMGWYRQAPGKERELVASISSGVGTNYADSVKGRFTISRDNAKNTDYLQMNSLKPEDTAVYYCAARFRYYRHYYWGQGTQVTVSS”, the “polyreactivity (PSR sort gate)” value was “high polyreactivity”. With “QVQLVESGGGLVQAGGSLSLSCAASGRTMYTNAMGWYIQAPGKERELVAVITLSTDGTYYADSVKGRFTISRDNAKNTVYLQMNSLKPEDTAVYYCAIGDPDGDREIWRLYYWGQGTKVTVSS” the “polyreactivity (PSR sort gate)” value was “low polyreactivity”. In the case of “QVQLVESGGGLVQAGGSLSLSCAASGSIFESNAMGLYRQAPGKERELVAAYADSVKGRFTISRDNAKNTVYLQMNSLKPEDTAVYYCAKSLSLYVVPLYEYWGQGTQVTVSS”, the “polyreactivity (PSR sort gate)” value is reported as “low polyreactivity”. In the case of “QVQLVESGGGLVQAGGSLSLSCAASGSIFYYYAMGWYRKAPGKERELVASIRSGGSTNYADSVKGRFTISRDNAKNTVYLQKNSLKPEDTAVYYCAARKFYASSLRYGYWGQCTQVTVSS”, the “polyreactivity (PSR sort gate)” value is reported as “high polyreactivity”. In the case of “QVQLVESGGGLVQAGGSLSLSCAASGSILVGYAMGWYRQAPGKERELVARISTSGGSTTYYADSVKGRFTISRDNAKNTVYLQMNSLKPEDTAVYYCAADYKPYYRRRYDYWGQGTQVTVSS”, the “polyreactivity (PSR sort gate)” value is reported as “low polyreactivity”. In the case of “QVQLVESGGGLVQAGGSLSLSCAASGSNFVYYAMGWSRQAPGKERELVAAINFRGGNTYYADSVKGRFTISRDNAKNTVYLQMNSLKPEDTAVYYCAADYRWKWIGGARYDYWGQGTQVTVSS”, the “polyreactivity (PSR sort gate)” value is reported as “low polyreactivity”. In the case of “QVQLVESGGGLVQAGGSLSLSCAASGSTFIKNAMGWYRQAPGKESELVAAINWSGTRTYYADSVKGRFTISRDNANNTVYLKMNSLKPEDTAVYYCAKVIARFVRYDYWGQGTQVTVSS”, the “polyreactivity (PSR sort gate)” value is reported as “high polyreactivity”. With “QVQLVESGGGLVQAGGSLSLSCAASGSTFQLYAKGWYRQAPGKERELVAAISGIGDSTYYADSVKWRFTISRDNAKNTVYLLMNSLKPEDTAVYYCAREFSDGLSGKFDYWGHGTQVTVSS” the “polyreactivity (PSR sort gate)” value was “low polyreactivity”. With “QVQLVESGGGLVQAGGSLSLSCAASGSTFSRNTMGRYRQAPRKERELVAGISSSGGSTYYADSVKGRFTISRDNAKNTVYLQMNSLKQEDTAVYYCSARFYVSFVGYNYWGQGTQVTVSS” the “polyreactivity (PSR sort gate)” value was “high polyreactivity”. With “QVQLVESGGGLVQAGGSLSLSCAASGSTFYYNAMGWYRQAPGKEREFVAAINWRGGSTYYADSVKGRFTISRDNAKNTVYLQMNSLKPEDTAVYYCSAEEASTYYYVRSGYDYHFWEMYSWGQGTQVTVSS” the “polyreactivity (PSR sort gate)” value was “low polyreactivity”. For “QVQLVESGGGLVQAGGSLSLSCAASGSTMATYTMGWYRQAPGKERELVAAISFGGSTYYADSVKGRFTISRDNAKNTVYLQMNSLKPEDTAVYYCAVYGDSYWGAYYYSDGYWGQGTQVTVSS”, the “polyreactivity (PSR sort gate)” value was “low polyreactivity”. In the case of “QVQLVESGGGLVQAGGSLSLSCAATGSTFAQNAMGWYRQAPGKERELVAAISRRGGSTYYADSVKGRFTISRDNAKNTVYVQMNSLKPEDTAVYYCAADQPVRQHHRDDYWGQGTQVTVSS”, the “polyreactivity (PSR sort gate)” value is reported as “low polyreactivity”. With “QVQLVESGGGLVQAGGSLSLSCAAYGGIFPENAMGWYRLAPGKERELVAAMSRSGSSTYYADSVKGRFTISRDNAKNTVFLQMNSLKPEVTAVSYCAARGVKWGQGSQVTVSS” the “polyreactivity (PSR sort gate)” value was “high polyreactivity”. In the case of “QVQLVESGGGLVQAGGSLSLSCADSGLTFRKYAMGWYRQAPGKERELVAAISWSGGSTYYANSVKGRFTISRDNAKNTVYLQMNSLKPEETAVYYCAAVPVHTGSMYWGFTNGYDYWGQGTQVTLSS”, the “polyreactivity (PSR sort gate)” value is reported as “low polyreactivity”. In the case of “QVQLVESGGGLVQAGGSLSLSCDASGFTFRYYFMGWYRQAPGKERELVAAISYTGRTTYYADSVKGRFTISRDNAKNTVYLQMNSLKPEDTAVYYCASGAIGYNGKAYGMDYWGQGTEVTVSS”, the “polyreactivity (PSR sort gate)” value is reported as “high polyreactivity”. For “QVQLVESGGGLVQAGGSLSLSCDASGRIFVVKAMGWYRQAPGKERELVAAITRRGGSTYADSVKGRFTISRDNAKNTVYLQMNSLKPEDTAVYYCNAESYYGIFSYKYDYWGQGTQVTVSS”, the “polyreactivity (PSR sort gate)” value was “high polyreactivity”. In the case of “QVQLVESGGGLVQAGGSLSLSSAASGRTFTFNTMGWYRQAPGKERELVAAIDGDGTTNYADSVKGRFTISRDNAKYTVYLQMNSLKPEDTAVYYCAADFLYSFWYEPTFDYWGQGTQVTVSS”, the “polyreactivity (PSR sort gate)” value is reported as “low polyreactivity”. For “QVQLVESGGGLVQAGGSLSLSWAASGFILKINTMGWYRPAPRKERDLVADITESGGNTYADSEKWRFTISRDNAKNTVYLQMNSLKPEVTAVYYCNDDIYISPLVQVSKGYDYWGQGTQVTVSS”, the “polyreactivity (PSR sort gate)” value was “low polyreactivity”. In the case of “QVQLVESGGGLVQAGGSLSLTCAASGITFPRNAMGWSRQAPGKERELVAAISARGGNTYYADSVKGRFTISRDNSKNTVYLQMNSLKPEDTAVYYCNALGSSYSEPSEYDYWGQGTQVTVSS”, the “polyreactivity (PSR sort gate)” value is reported as “low polyreactivity”. With “QVQLVESGGGLVQAGGSLSLTCAASGITFYLYAMGWDIQAPGKERELVAAISSGSRTTYADSVKGRFTISRDNEKNTVYLQMNSLKPEDTAFYYCAAAYWNWGYYYSYDYWGQGTQVTVSS” the “polyreactivity (PSR sort gate)” value was “high polyreactivity”. With “QVQLVESGGGLVQAGGSLSLTCDAYGRTIYKYGMGWYREAPGKERDLVARINSNGGSTYYADSVKGRFTISRDNAKNTVYLELISLKPEDTAVYYCARSYVRSYGYYYWGQGTQVTVSS” the “polyreactivity (PSR sort gate)” value was “low polyreactivity”. In the case of “QVQLVESGGGLVQAGGSRLSCAASGLIFIWYTMGWYRQAPGKERELVAAIDSSGGNTYYADSVKGRFTISRDNAKNPVYLQMNSLKPAETAVYYCATDVGHGAGNLMGYWGQGTQVTVSS”, the “polyreactivity (PSR sort gate)” value is reported as “low polyreactivity”. For “QVQLVESGGGLVQAGGSRRLSCAASGFFFRNYAMGWYRQAPGKEMELVAVITSSGGSTYYADSVKGRFTISRDNAKNTVYLQMNSLKPEDTAVYYCNKPGLRSGPRYDYWGQGTQVTVSS”, the “polyreactivity (PSR sort gate)” value was “high polyreactivity”. In the case of “QVQLVESGGGLVQAGGSRRLSCAASGFIFSGYAMGWYRQERGKERELVAAITRSGSRTYYADSVKGRFTISRDNAKNTVYLQMNSLKPEDTAVYYCAKDKPKYGISTIDYWGQGTLVTVSS”, the “polyreactivity (PSR sort gate)” value is reported as “high polyreactivity”. With “QVQLVESGGGLVQAGGSRRLSCAASGFIFTTYTRGWYRQATGTERELVAAIRSDGVRTYYADSVKGRFTISRDNAKNTVYLQMNSLKPEDTAVYYCNRVCAVRIGAGDYWGQGTQVTVSS” the “polyreactivity (PSR sort gate)” value was “high polyreactivity”. In the case of “QVQLVESGGGLVQAGGSRRLSCAASGITFGWYAMGWYRQAPGKEMEWVATISQSGTSTYYADSVKGRFTISRDNAKNTVYLKMISLKPEDTAFYYCAADYIRGYYFRVRLEVDYWGQGTQVTVSS”, the “polyreactivity (PSR sort gate)” value is reported as “low polyreactivity”. For “QVQLVESGGGLVQAGGSRRLSCAASGITFSRYAMGWYRQAPGKERELVAAITSSGGSTYYADSVKGRFTISRDNAKNTVYLQMNSLKPEDTAVYYCAATSYYTREQYYYWGQGTQVTVSS”, the “polyreactivity (PSR sort gate)” value was “high polyreactivity”.
